Test results: patent US20190077860A1 (EISAI R AND D MANAGEMENT, published 2019)

T1: human EphA7 extracellular region-SEAP-His protein (human, UniProt Q15375 28-555)
T1 construct: extracellular domain; also called hEphA7-SEAP-His
T1 sequence (looked up): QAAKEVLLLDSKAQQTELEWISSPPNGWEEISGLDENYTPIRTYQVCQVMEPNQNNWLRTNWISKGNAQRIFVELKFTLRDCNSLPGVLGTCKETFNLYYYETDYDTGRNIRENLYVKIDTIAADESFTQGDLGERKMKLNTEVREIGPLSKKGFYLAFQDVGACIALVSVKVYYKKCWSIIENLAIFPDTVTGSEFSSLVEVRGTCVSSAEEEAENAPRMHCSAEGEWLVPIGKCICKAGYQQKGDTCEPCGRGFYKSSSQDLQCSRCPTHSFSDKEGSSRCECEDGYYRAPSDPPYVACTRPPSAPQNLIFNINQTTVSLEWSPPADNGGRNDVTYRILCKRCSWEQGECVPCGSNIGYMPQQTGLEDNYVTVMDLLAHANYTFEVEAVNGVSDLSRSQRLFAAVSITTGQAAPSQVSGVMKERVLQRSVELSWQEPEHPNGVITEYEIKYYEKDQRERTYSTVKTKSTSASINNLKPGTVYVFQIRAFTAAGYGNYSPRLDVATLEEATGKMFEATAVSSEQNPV

T2: human EphA1 extracellular region-SEAP-His protein (human, UniProt P21709 26-547)
T2 construct: extracellular domain; also called hEphA1-SEAP-His
T2 sequence (looked up): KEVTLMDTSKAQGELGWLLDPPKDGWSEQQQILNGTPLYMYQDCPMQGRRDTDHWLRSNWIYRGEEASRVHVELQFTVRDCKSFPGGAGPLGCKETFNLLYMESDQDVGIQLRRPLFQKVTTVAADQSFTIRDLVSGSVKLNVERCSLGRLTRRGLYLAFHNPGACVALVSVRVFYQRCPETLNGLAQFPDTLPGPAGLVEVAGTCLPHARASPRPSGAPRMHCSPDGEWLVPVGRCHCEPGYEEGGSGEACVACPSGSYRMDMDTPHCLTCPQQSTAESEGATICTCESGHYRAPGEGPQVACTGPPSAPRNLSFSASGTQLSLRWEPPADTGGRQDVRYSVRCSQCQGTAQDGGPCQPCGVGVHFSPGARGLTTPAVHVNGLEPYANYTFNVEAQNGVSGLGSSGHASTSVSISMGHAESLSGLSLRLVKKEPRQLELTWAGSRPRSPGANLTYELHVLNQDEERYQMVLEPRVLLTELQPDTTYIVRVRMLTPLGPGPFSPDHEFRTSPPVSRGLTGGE

T3: human EphA8 extracellular region-SEAP-His protein (human, UniProt P29322 28-542)
T3 construct: extracellular domain; also called hEphA8-SEAP-His
T3 sequence (looked up): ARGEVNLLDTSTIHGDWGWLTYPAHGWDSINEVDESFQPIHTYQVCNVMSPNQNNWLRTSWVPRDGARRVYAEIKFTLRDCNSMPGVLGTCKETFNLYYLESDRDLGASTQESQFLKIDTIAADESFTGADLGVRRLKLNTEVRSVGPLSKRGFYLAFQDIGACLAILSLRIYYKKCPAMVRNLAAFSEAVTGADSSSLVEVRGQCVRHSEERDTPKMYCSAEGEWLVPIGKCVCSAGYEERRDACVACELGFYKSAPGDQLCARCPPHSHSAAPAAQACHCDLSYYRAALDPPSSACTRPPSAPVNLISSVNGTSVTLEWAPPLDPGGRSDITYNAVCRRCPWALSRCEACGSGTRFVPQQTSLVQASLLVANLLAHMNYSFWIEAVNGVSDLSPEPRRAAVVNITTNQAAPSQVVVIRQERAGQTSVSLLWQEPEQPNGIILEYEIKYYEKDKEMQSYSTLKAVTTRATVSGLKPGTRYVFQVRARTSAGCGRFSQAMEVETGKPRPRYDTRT

T4: human EphB3 extracellular region-SEAP-His protein (human, UniProt P54753 34-559)
T4 construct: extracellular domain; also called hEphB3-SEAP-His
T4 sequence (looked up): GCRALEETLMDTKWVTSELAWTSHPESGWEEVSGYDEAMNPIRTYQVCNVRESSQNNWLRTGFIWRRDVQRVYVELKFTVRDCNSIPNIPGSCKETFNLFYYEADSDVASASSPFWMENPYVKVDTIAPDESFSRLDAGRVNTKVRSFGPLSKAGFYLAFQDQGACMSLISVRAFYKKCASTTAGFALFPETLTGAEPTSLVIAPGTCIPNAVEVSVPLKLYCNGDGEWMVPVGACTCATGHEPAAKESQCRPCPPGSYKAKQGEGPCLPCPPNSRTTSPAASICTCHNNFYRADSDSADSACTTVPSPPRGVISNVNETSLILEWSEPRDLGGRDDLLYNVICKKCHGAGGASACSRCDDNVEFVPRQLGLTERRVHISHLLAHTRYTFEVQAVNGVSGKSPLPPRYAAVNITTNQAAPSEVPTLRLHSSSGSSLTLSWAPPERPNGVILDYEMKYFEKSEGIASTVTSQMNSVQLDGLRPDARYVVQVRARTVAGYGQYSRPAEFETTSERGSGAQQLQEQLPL


Legend:
Assay in all cases: ELISA
[1] = target: T5, human EphA4 extracellular region-SEAP-His protein (human, UniProt P54764 20-547)
T5 construct: also called hEphA4-SEAP-His

[2] = target: T1, human EphA7 extracellular …
[3] = target: T2, human EphA1 extracellular …
[4] = target: T3, human EphA8 extracellular …
[5] = target: T6, human EphA5 extracellular region-SEAP-His protein (human, UniProt P54756 25-573)
T6 construct: extracellular domain; also called hEphA5-SEAP-His

[6] = target: T4, human EphB3 extracellular …

T5 sequence (P54764 20-547): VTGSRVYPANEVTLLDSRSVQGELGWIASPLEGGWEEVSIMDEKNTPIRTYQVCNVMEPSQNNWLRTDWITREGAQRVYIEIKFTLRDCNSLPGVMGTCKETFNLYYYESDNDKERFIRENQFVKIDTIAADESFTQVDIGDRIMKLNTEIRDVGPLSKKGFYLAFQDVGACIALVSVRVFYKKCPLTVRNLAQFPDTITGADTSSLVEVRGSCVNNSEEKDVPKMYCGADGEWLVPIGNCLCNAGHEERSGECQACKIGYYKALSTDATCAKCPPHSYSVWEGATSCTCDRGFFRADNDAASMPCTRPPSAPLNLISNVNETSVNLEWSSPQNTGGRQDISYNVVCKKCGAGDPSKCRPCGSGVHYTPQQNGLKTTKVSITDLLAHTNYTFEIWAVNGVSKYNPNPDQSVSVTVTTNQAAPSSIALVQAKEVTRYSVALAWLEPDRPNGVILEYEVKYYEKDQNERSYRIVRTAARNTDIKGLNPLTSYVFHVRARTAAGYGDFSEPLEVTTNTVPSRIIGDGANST
T6 sequence (P54756 25-573): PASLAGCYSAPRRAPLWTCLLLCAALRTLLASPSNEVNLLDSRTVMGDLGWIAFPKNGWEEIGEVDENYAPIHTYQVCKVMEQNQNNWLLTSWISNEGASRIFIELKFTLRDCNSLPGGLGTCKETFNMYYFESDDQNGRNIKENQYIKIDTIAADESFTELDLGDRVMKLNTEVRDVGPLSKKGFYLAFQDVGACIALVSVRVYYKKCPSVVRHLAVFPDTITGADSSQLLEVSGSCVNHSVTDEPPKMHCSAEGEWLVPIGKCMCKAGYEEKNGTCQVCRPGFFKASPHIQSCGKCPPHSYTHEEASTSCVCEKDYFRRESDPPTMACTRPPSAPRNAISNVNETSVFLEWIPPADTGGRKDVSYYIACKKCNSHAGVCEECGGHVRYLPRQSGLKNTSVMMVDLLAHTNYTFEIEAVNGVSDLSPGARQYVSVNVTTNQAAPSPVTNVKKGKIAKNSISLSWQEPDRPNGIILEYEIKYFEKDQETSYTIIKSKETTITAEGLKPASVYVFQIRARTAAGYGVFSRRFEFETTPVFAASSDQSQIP

| Binder | A450 as % of hEphA4-SEAP-His [1] [%] | A450 as % of hEphA4-SEAP-His [2] [%] | A450 as % of hEphA4-SEAP-His [3] [%] | A450 as % of hEphA4-SEAP-His [4] [%] | A450 as % of hEphA4-SEAP-His [5] [%] | A450 as % of hEphA4-SEAP-His [6] [%] |
| --- | --- | --- | --- | --- | --- | --- |
| humanized antibody No. 76 (antibody, human IgG1, kappa, human Ig kappa; also called L1-4/HA2) heavy: QVQLVQSGSELKKPGASVKVSCKASGYTFTDYSMHWVRQAPGQGLKWMGWINTETGEPTYAQGFTGRFVFSLDTSVSTAYLQISSLKAEDTAVYYCARIPLYYYGSRYWYFDVWGQGTTVTVSSASTKGPSVFPLAPSSKSTSGGTAALGCLVKDYFPEPVTVSWNSGALTSGVHTFPAVLQSSGLYSLSSVVTVPSSSLGTQTYICNVNHKPSNTKVDKRVEPKSCDKTHTCPPCPAPPAAAPSVFLFPPKPKDTLMISRTPEVTCVVVDVSHEDPEVQFNWYVDGVEVHNAKTKPREEQFNSTFRVVSVLTVVHQDWLNGKEYKCKVSNKGLPAPIEKTISKTKGQPREPQVYTLPPSREEMTKNQVSLTCLVKGFYPSDIAVEWESNGQPENNYKTTPPMLDSDGSFFLYSKLTVDKSRWQQGNVFSCSVMHEALHNHYTQKSLSLSPG light: DIQMTQSPSSLSASVGDRVTITCRASENIYRNLAWYQQKPGKAPKLLVYAATNLADGVPSRFSGSGSGTDYTLTISSLQPEDFATYYCQHFWGTPWTFGQGTKVEIKRTVAAPSVFIFPPSDEQLKSGTASVVCLLNNFYPREAKVQWKVDNALQSGNSQESVTEQDSKDSTYSLSSTLTLSKADYEKHKVYACEVTHQGLSSPVTKSFNRGEC | 100 | 4.8 | 5.1 | 5.5 | 5.3 | 5 |
| humanized antibody No. 67 (antibody, human IgG1, kappa, human Ig kappa; also called L1-4/HA4) heavy: QIQLVQSGSELKKPGASVKVSCKASGYTFTDYSMHWVRQAPGQGLKWMGWINTETGEPTYAQGFTGRFVFSLDTSVSTAYLQISSLKAEDTAVYYCARIPLYYYGSRYWYFDVWGQGTTVTVSSASTKGPSVFPLAPSSKSTSGGTAALGCLVKDYFPEPVTVSWNSGALTSGVHTFPAVLQSSGLYSLSSVVTVPSSSLGTQTYICNVNHKPSNTKVDKRVEPKSCDKTHTCPPCPAPPAAAPSVFLFPPKPKDTLMISRTPEVTCVVVDVSHEDPEVQFNWYVDGVEVHNAKTKPREEQFNSTFRVVSVLTVVHQDWLNGKEYKCKVSNKGLPAPIEKTISKTKGQPREPQVYTLPPSREEMTKNQVSLTCLVKGFYPSDIAVEWESNGQPENNYKTTPPMLDSDGSFFLYSKLTVDKSRWQQGNVFSCSVMHEALHNHYTQKSLSLSPG light: DIQMTQSPSSLSASVGDRVTITCRASENIYRNLAWYQQKPGKAPKLLVYAATNLADGVPSRFSGSGSGTDYTLTISSLQPEDFATYYCQHFWGTPWTFGQGTKVEIKRTVAAPSVFIFPPSDEQLKSGTASVVCLLNNFYPREAKVQWKVDNALQSGNSQESVTEQDSKDSTYSLSSTLTLSKADYEKHKVYACEVTHQGLSSPVTKSFNRGEC | 100 | 4.7 | 4.6 | 4.7 | 4.8 | 4.9 |
| humanized antibody No. 69 (antibody, human IgG1, kappa, human Ig kappa; also called L1-4/HK4) heavy: QIQLVQSGSELKKPGASVKVSCKASGYTFTDYSMHWVRQAPGQGLKWMGWINTETGEPTYADDFKGRFVFSLDTSVSTAYLQISSLKAEDTAVYYCARIPLYYYGSRYWYFDVWGQGTTVTVSSASTKGPSVFPLAPSSKSTSGGTAALGCLVKDYFPEPVTVSWNSGALTSGVHTFPAVLQSSGLYSLSSVVTVPSSSLGTQTYICNVNHKPSNTKVDKRVEPKSCDKTHTCPPCPAPPAAAPSVFLFPPKPKDTLMISRTPEVTCVVVDVSHEDPEVQFNWYVDGVEVHNAKTKPREEQFNSTFRVVSVLTVVHQDWLNGKEYKCKVSNKGLPAPIEKTISKTKGQPREPQVYTLPPSREEMTKNQVSLTCLVKGFYPSDIAVEWESNGQPENNYKTTPPMLDSDGSFFLYSKLTVDKSRWQQGNVFSCSVMHEALHNHYTQKSLSLSPG light: DIQMTQSPSSLSASVGDRVTITCRASENIYRNLAWYQQKPGKAPKLLVYAATNLADGVPSRFSGSGSGTDYTLTISSLQPEDFATYYCQHFWGTPWTFGQGTKVEIKRTVAAPSVFIFPPSDEQLKSGTASVVCLLNNFYPREAKVQWKVDNALQSGNSQESVTEQDSKDSTYSLSSTLTLSKADYEKHKVYACEVTHQGLSSPVTKSFNRGEC | 100 | 5.3 | 5.7 | 5.5 | 5.6 | 5.9 |
